Measured values taken from article PMC4546648.

Target: GST-K15P cytoplasmic domain (aa 347-489) (Kaposi's sarcoma herpesvirus (KSHV, HHV-8)) (UniProt Q9QR69)
Assay: SPR; Biacore X100; GST-K15P cytoplasmic tail amine-coupled to a CM4 chip (207 RU); His-tagged PLCγ2 cSH2 wt or SB injected at 1.5, 3, 6, 12, 24 nM, single cycle kinetics, 30 μl/min, HBS-EP buffer pH 7.4

Row | Substance | Kd [nM]
1 | His-tagged PLCγ2 cSH2 domain wt, purified from E. coli (from UniProt P16885 1-1265) (domain or fragment) | 5.8
2 | His-tagged PLCγ2 cSH2 S677V/R695L superbinder, purified from E. coli (domain or fragment) | 3.8
